Measurements from the RNAGym collection of RNA variant scans (doi:10.7554/elife.80360).

B1: CPEB3 Ribozyme (parent)
chain: GGGGGCCACAGCAGAAGCGUUCACGUCGCGGCCCCUGUCAGAUUCUGGUGAAUCUGCGAAUUCUGCUGU

Variants of: B1
Assay: self-cleavage, relative activity (ratio to wild type); higher = more cleavage; co-transcriptional

**Q.** Which self-cleavage does the source give for GGGGGCCACAGCAGAAGCGUUCACGUCGCGGCCCAUGUCAGAUUCUGGUGAAUCUGCGAAUUCGGCUGU [C35A U64G] here?
**A.** Its self-cleavage is 0.318.

**Q.** For GGGGGCCACAGCAGAAGCGUUCACGUCGCGGCCCGUCUCAGAUUCUGGUGAAUCUGCGAAUUCUGCUGU [C35G G37C], which self-cleavage is on record?
**A.** Its self-cleavage is 0.206.

**Q.** Which self-cleavage does the source give for GGGGGCCACAGCAGAAGCGUUCACGUCGCGGCCCGUAUCAGAUUCUGGUGAAUCUGCGAAUUCUGCUGU [C35G G37A] here?
**A.** The self-cleavage was 0.219.

**Q.** Which self-cleavage does the source give for GGGGGCCACAGCAGAAGCGUUCACGUCGCGGCCCGUUUCAGAUUCUGGUGAAUCUGCGAAUUCUGCUGU [C35G G37U] here?
**A.** Its self-cleavage is 0.257.

**Q.** For GGGGGCCACAGCAGAAGCGUUCACGUCGCGGCCCAUGUCAGAUUCUGGUGAAUCUGCGAAUUCUGCCGU [C35A U67C], which self-cleavage is on record?
**A.** Its self-cleavage is 0.324.

**Q.** With GGGGGCCACAGCAGAAGCGUUCACGUCGCGGCCCAUGUCAGAUUCUGGUGAAUCUGCUAAUUCUGCUGU [C35A G58U] as the variant, how does the self-cleavage read?
**A.** The self-cleavage was 0.286.

**Q.** Which self-cleavage does the source give for GGGGGCCACAGCAGAAGCGUUCACGUCGCGGCCCAUGUCAGAGUCUGGUGAAUCUGCGAAUUCUGCUGU [C35A U43G] here?
**A.** Its self-cleavage is 0.227.

**Q.** For GGGGGCCACAGCAGAAGCGUUCACGUCGCGGCCCAUGUCAGACUCUGGUGAAUCUGCGAAUUCUGCUGU [C35A U43C], which self-cleavage is on record?
**A.** The self-cleavage was 0.264.

**Q.** With GGGGGCCACAGCAGAAGCGUUCACGUCGCGGCCCAUGUCAGAAUCUGGUGAAUCUGCGAAUUCUGCUGU [C35A U43A] as the variant, how does the self-cleavage read?
**A.** The self-cleavage was 0.185.

**Q.** Which self-cleavage does the source give for GGGGGCCACAGCAGAAGCGUUCACGUCGCGGCCCAUGCCAGAUUCUGGUGAAUCUGCGAAUUCUGCUGU [C35A U38C] here?
**A.** The self-cleavage was 0.256.

**Q.** For GGGGGCCACAGCAGAAGCGUUCACGUCGCGGCCCAUGACAGAUUCUGGUGAAUCUGCGAAUUCUGCUGU [C35A U38A], which self-cleavage is on record?
**A.** The self-cleavage was 0.279.

**Q.** With GGGGGCCACAGCAGAAGCGUUCACGUCGCGGCCCGUGUAAGAUUCUGGUGAAUCUGCGAAUUCUGCUGU [C35G C39A] as the variant, how does the self-cleavage read?
**A.** The self-cleavage was 0.362.

**Q.** Which self-cleavage does the source give for GGGGGCCACAGCAGAAGCGUUCACGUCGCGGCCCAUGUCAGAUUCUGGUGAAUCAGCGAAUUCUGCUGU [C35A U55A] here?
**A.** Its self-cleavage is 0.244.

**Q.** Which self-cleavage does the source give for GGGGGCCACAGCAGAAGCGUUCACGUCGCGGCCCAUGUCAGAUUCUGGUGAAUCGGCGAAUUCUGCUGU [C35A U55G] here?
**A.** The self-cleavage was 0.196.

**Q.** Which self-cleavage does the source give for GGGGGCCACAGCAGAAGCGUUCACGUCGCGGCCCAUGUCAGAUUCUGGUGAAUCCGCGAAUUCUGCUGU [C35A U55C] here?
**A.** Its self-cleavage is 0.357.

**Q.** For GGGGGCCACAGCAGAAGCGUUCACGUCGCGGCCCGUGUCAGAUUCUGGUGAAUCUGCGUAUUCUGCUGU [C35G A59U], which self-cleavage is on record?
**A.** The self-cleavage was 0.254.

**Q.** For GGGGGCCACAGCAGAAGCGUUCACGUCGCGGCCCGUGUCAGAUUCUGGUGAAUCUGAGAAUUCUGCUGU [C35G C57A], which self-cleavage is on record?
**A.** The self-cleavage was 0.243.

**Q.** With GGGGGCCACAGCAGAAGCGUUCACGUCGCGGCCCGUGUCAGAUUCUGGUGAAUCUGGGAAUUCUGCUGU [C35G C57G] as the variant, how does the self-cleavage read?
**A.** Its self-cleavage is 0.212.

**Q.** For GGGGGCCACAGCAGAAGCGUUCACGUCGCGGCCCAUGUCAGAUCCUGGUGAAUCUGCGAAUUCUGCUGU [C35A U44C], which self-cleavage is on record?
**A.** Its self-cleavage is 0.277.

**Q.** For GGGGGCCACAGCAGAAGCGUUCACGUCGCGGCCCAUGUCAGAUUCUUGUGAAUCUGCGAAUUCUGCUGU [C35A G47U], which self-cleavage is on record?
**A.** Its self-cleavage is 0.259.

**Q.** For GGGGGCCACAGCAGAAGCGUUCACGUCGCGGCCCAUGUCAGAUUCUCGUGAAUCUGCGAAUUCUGCUGU [C35A G47C], which self-cleavage is on record?
**A.** The self-cleavage was 0.189.

**Q.** Which self-cleavage does the source give for GGGGGCCACAGCAGAAGCGUUCACGUCGCGGCCCAUGUCAGAUUCUAGUGAAUCUGCGAAUUCUGCUGU [C35A G47A] here?
**A.** Its self-cleavage is 0.292.

**Q.** Which self-cleavage does the source give for GGGGGCCACAGCAGAAGCGUUCACGUCGCGGCCCGUGUCAGAUUCUGUUGAAUCUGCGAAUUCUGCUGU [C35G G48U] here?
**A.** The self-cleavage was 0.491.

**Q.** With GGGGGCCACAGCAGAAGCGUUCACGUCGCGGCCCGUGUCAGAUUCUGAUGAAUCUGCGAAUUCUGCUGU [C35G G48A] as the variant, how does the self-cleavage read?
**A.** Its self-cleavage is 0.452.

**Q.** For GGGGGCCACAGCAGAAGCGUUCACGUCGCGGCCCAUGUCAGAUUCUGGUGAAUCUGCGAAUUCUGCUCU [C35A G68C], which self-cleavage is on record?
**A.** Its self-cleavage is 0.345.

**Q.** With GGGGGCCACAGCAGAAGCGUUCACGUCGCGGCCCAUGUCAGAUUCUGGUGAAUCUGCGAAUUCUGCUUU [C35A G68U] as the variant, how does the self-cleavage read?
**A.** Its self-cleavage is 0.394.

**Q.** With GGGGGCCACAGCAGAAGCGUUCACGUCGCGGCCCAUGUCAGAUUCUGGGGAAUCUGCGAAUUCUGCUGU [C35A U49G] as the variant, how does the self-cleavage read?
**A.** Its self-cleavage is 0.26.

**Q.** Which self-cleavage does the source give for GGGGGCCACAGCAGAAGCGUUCACGUCGCGGCCCAUGUCAGAUUCUGGCGAAUCUGCGAAUUCUGCUGU [C35A U49C] here?
**A.** Its self-cleavage is 0.342.

**Q.** With GGGGGCCACAGCAGAAGCGUUCACGUCGCGGCCCAUGUCAGAUUCUGGAGAAUCUGCGAAUUCUGCUGU [C35A U49A] as the variant, how does the self-cleavage read?
**A.** Its self-cleavage is 0.303.

**Q.** With GGGGGCCACAGCAGAAGCGUUCACGUCGCGGCCCGUGUCAGAUUGUGGUGAAUCUGCGAAUUCUGCUGU [C35G C45G] as the variant, how does the self-cleavage read?
**A.** The self-cleavage was 0.452.

**Q.** For GGGGGCCACAGCAGAAGCGUUCACGUCGCGGCCCGUGUCAGAUUAUGGUGAAUCUGCGAAUUCUGCUGU [C35G C45A], which self-cleavage is on record?
**A.** Its self-cleavage is 0.475.

**Q.** With GGGGGCCACAGCAGAAGCGUUCACGUCGCGGCCCGUGUCAGAUUUUGGUGAAUCUGCGAAUUCUGCUGU [C35G C45U] as the variant, how does the self-cleavage read?
**A.** The self-cleavage was 0.483.

**Q.** For GGGGGCCACAGCAGAAGCGUUCACGUCGCGGCCCAUGUCAGAUUCUGGUGAAGCUGCGAAUUCUGCUGU [C35A U53G], which self-cleavage is on record?
**A.** The self-cleavage was 0.24.

**Q.** With GGGGGCCACAGCAGAAGCGUUCACGUCGCGGCCCAUGUCAGAUUCUGGUGAACCUGCGAAUUCUGCUGU [C35A U53C] as the variant, how does the self-cleavage read?
**A.** The self-cleavage was 0.225.

**Q.** Which self-cleavage does the source give for GGGGGCCACAGCAGAAGCGUUCACGUCGCGGCCCAUGUCAGAUUCUGGUGAAACUGCGAAUUCUGCUGU [C35A U53A] here?
**A.** Its self-cleavage is 0.266.

**Q.** Which self-cleavage does the source give for GGGGGCCACAGCAGAAGCGUUCACGUCGCGGCCCGUGUCAGAUUCUGGUGCAUCUGCGAAUUCUGCUGU [C35G A51C] here?
**A.** Its self-cleavage is 0.426.

**Q.** With GGGGGCCACAGCAGAAGCGUUCACGUCGCGGCCCGUGUCAGAUUCUGGUGUAUCUGCGAAUUCUGCUGU [C35G A51U] as the variant, how does the self-cleavage read?
**A.** The self-cleavage was 0.445.

**Q.** Which self-cleavage does the source give for GGGGGCCACAGCAGAAGCGUUCACGUCGCGGCCCGUGUCAGAUUCUGGUGGAUCUGCGAAUUCUGCUGU [C35G A51G] here?
**A.** Its self-cleavage is 0.461.

**Q.** For GGGGGCCACAGCAGAAGCGUUCACGUCGCGGCCCAUGUCAGAUUCUGGUUAAUCUGCGAAUUCUGCUGU [C35A G50U], which self-cleavage is on record?
**A.** Its self-cleavage is 0.287.
